Key:
[1] = biological target: inshore hagfish (Eptatretus burgeri) VPAC receptor b (inshore hagfish (Eptatretus burgeri))
[2] = biological target: inshore hagfish (Eptatretus burgeri) VPAC receptor a (inshore hagfish (Eptatretus burgeri))
[3] = biological target: inshore hagfish (Eptatretus burgeri) VPAC receptor a (inshore hagfish (Eptatretus burgeri)); remark: listed apart in the source
hfVPACa = test: cAMP accumulation (LANCE cAMP assay) in COS-7 cells transiently transfected with hfVPACa; type: cell-based, inshore hagfish (Eptatretus burgeri); conditions: 100 nM peptide, 30 min, at least 4 experiments in duplicates
Protocol: To investigate the functional properties of the proteins encoded by the agnathan VPAC receptor cDNAs, various vertebrate secretin superfamily peptides at a 100 nM concentration were employed to determine their abilities to stimulate cAMP production in transiently transfected COS-7 cells with hfVPACa or hfVPACb. As jlpVPAC was indicated to be orthologous to hfVPACa by phylogenetic analysis, only the hfVPAC receptors were tested (Figure 4). […] The hfVPACa was further studied using graded concentrations of VIP/PACAP peptides from various vertebrates including sea lamprey (Figure 4C and 4D).
Figure 4 Functional characterization of hfVPACa and hfVPACb. Intracellular cAMP accumulation in response to 100 nM vertebrate superfamily peptides on COS-7 cells transiently transfected with (A) hfVPACa and (B) hfVPACb. Peptide species: slp, sea lamprey; gf, goldfish; h, human; o, ovine; zf, zebrafish; x, Xenopus; ct, catfish and cp, carp. Data represent the mean ± S.E.M. of at least 4 experiments performed in duplicates, p<0.01 is denoted by “*”. […] Data are expressed as the mean ± S.E.M. of at least 6 experiments performed in duplicates. […] Data are expressed as the mean ± S.E.M. of at least 4 experiments. RFU, relative fluorescence units. (G) Shown are representative of confocal fluorescence images of CHO-K1 cells expressing (i) hfVPACa-pEYFP, (ii) hfVPACb-pEYFP and (iii) pEYFP-N1.
African green monkey kidney (COS-7) and Chinese hamster ovary (CHO-K1) cells (ATCC, Manassas, VA) were cultured in 10% FBS/100 U/ml Penicillin/[…] Streptomycin supplemented DMEM and MEM respectively in a 5% (v/v) CO2 humidified chamber at 37°C and passaged twice per week using Trypsin-EDTA (TE) (Invitrogen) on Nunc^TM Surface (Nunc, Denmark) tissue culture flasks. […] For cAMP assays, COS-7 cells were stimulated for 30 mins with either fixed ([…]) or varying (10^−6 to 10^−12 M) concentrations before taking measurements using the LANCE cAMP assay kit (Perkin-Elmer, Waltham, MA) in the Victor x4 multilabel reader (Perkin-Elmer) according to the manufacturer's protocol. […]

| intracellular cAMP accumulation (LANCE cAMP assay) in COS-7 cells transiently expressing hfVPACa, graded peptide concentrations 10^-6 to 10^-12 M, EC50 [3] [nM] | Substance | ability to stimulate cAMP production at a fixed peptide concentration (hfVPACa) | other results |
| --- | --- | --- | --- |
| 5.92 | sea lamprey PACAP-27 (peptide) |  | intracellular calcium elevation (Fluo-4 calcium assay) in CHO-K1 cells transiently expressing hfVPACb, graded peptide concentrations 10^-6 to 10^-12 M, EC50 [1]: 27.8 nM; intracellular calcium elevation (Fluo-4 calcium assay) in CHO-K1 cells transiently expressing hfVPACa, graded peptide concentrations 10^-6 to 10^-12 M, EC50 [2]: 1.39 nM |
| 1.74 | human VIP (peptide) |  |  |
|  | glucagon: Glucagon (goldfish), synthetic peptide (HSEGTFSNDYSKYLETRRAQDFVEWLMNS; Glucagon; UniProt P79695 50-78, looked up) | weakly or unable to do so |  |
|  | GLP-1 | weakly or unable to do so |  |
| 0.895 | ovine PACAP-27 (peptide) |  |  |
|  | GLP-2 | weakly or unable to do so |  |

Reference: PMC3434177, “Agnathan VIP, PACAP and Their Receptors: Ancestral Origins of Today's Highly Diversified Forms” (PLoS ONE, 2012)
